Experiment [1] concerns the target T1, universal-heterologous chimeric protein specific anti-Fc antibody. Put plainly: sandwich ELISA: capture by anti-Fc antibody, detection by biotinylated anti-human OX40L antibody; Abs450nm against log[Agonist], nM, nM is from the x axis. (In an ELISA, binding on a coated surface is turned into a signal by an enzyme label.)
The target of the next experiment is T2, human OX40 (human, UniProt P43489 29-277).
T2 construct: whole, on cells; also called hOX40; OX40 on CHO-K1/hOX40 cells
T2 sequence (looked up): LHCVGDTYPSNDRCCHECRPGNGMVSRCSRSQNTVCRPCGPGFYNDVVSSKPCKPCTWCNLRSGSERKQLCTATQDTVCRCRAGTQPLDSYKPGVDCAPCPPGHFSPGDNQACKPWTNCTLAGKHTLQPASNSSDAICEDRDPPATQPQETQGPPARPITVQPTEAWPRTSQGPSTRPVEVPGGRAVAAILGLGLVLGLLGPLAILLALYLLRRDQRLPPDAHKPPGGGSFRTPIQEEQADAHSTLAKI
As to the kind of experiment: flow cytometry binding to CHOK1/hOX40 cells; supernatant as % of total reaction volume. As for the experimental part: (§1) In another experiment, the CHO-K1/hPD-L1 cells were incubated with increasing amounts of the neat culture supernatant of the Jurkat parental or Jurkat/hPD-1-Fc-OX40L cells produced as discussed in Example 2. Binding was detected using flow cytometry and the MFI was calculated and plotted as a function of the amount of the neat culture supernatant of Jurkat parental or Jurkat/hPD-1-Fc-OX40L cells. […] Further, the CHO-K1/hOX40 cells were incubated with increasing amounts of the neat culture supernatant of the Jurkat parental or Jurkat/hPD-1-Fc-OX40L cells produced as discussed in Example 2. Binding was detected using flow cytometry and the MFI was calculated and plotted as a function of the amount of the neat culture supernatant of Jurkat parental or Jurkat/hPD-1-Fc-OX40L cells.

The target in experiment [2] is T1, universal-heterologous chimeric protein …. Put plainly: sandwich ELISA: capture by anti-Fc antibody, detection by biotinylated anti-human OX40L antibody; concentrated culture media, the protein concentration in it is not given so the x values are nominal; the fitted value lies beyond the highest point shown (log about 2.8), nM is from the x axis.
A further experiment concerns the target T3, human PD-L1 (human, UniProt Q9NZQ7 19-290).
T3 construct: whole, on cells; also called hPD-L1; PD-L1 on CHO-K1/hPD-L1 cells
Put plainly: flow cytometry binding to CHOK1/hPDL1 cells; supernatant as % of total reaction volume. As for the experimental part:
as §1

The target of another experiment is anti-human PD-1 antibody. Put plainly: MSD dual binding assay; Coat: anti-hPD1, Detect: anti-hOX40L; 3-fold dilution series drawn as bars. Here is the method:
Concentrated, de-salted culture supernatant was prepared as follows: 40 million Jurkat parental cells, Jurkat cells expressing human PD-1-Fc-4-1BBL chimeric protein (Jurkat/hPD-1-Fc-4-1BBL), Jurkat cells expressing human PD-1-Fc-OX40L chimeric protein (Jurkat/hPD-1-Fc-OX40L), or Jurkat cells expressing human CSF1R-Fc-CD40L chimeric protein (Jurkat/hCSF1R-Fc-CD40L) were cultured in 60 mL of media for 48 hours. After this, the media were harvested and concentrated 50-75× using AMICON-15 50K columns. Concentrated supernatant was desalted over a ZEBA desalting column or directly dialyzed in PBS and used in experiments. The resulting supernatant was also termed “neat” supernatant.
The PD-1-Fc-OX40L chimeric protein harbors the extracellular domain of PD-1 protein domain at or near the N-terminus and the extracellular domain of OX40 Ligand (OX40L) protein domain at or near the C-terminus. To understand whether the extracellular domains of PD-1 and OX40L can simultaneously bind to respective antibodies, an anti-human PD-1 antibody was coated on a plate. Three-fold serial dilutions neat culture supernatants of Jurkat parental cells or Jurkat/hPD-1-Fc-OX40L cells were added to the plate. […] The plate was incubated to allow capture of any protein by the plate-bound anti-human PD-1 antibody. […] Binding was detected using the MSD platform.

T3 sequence (Q9NZQ7 19-290): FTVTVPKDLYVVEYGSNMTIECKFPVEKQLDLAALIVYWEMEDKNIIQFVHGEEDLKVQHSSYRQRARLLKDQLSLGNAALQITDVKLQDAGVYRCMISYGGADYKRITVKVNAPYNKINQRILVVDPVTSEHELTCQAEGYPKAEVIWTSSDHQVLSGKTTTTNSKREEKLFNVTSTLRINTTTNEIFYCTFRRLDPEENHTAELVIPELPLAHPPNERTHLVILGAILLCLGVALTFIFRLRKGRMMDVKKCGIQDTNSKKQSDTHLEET

B1: human PD-1-Fc-OX40L heterologous chimeric protein (Fc fusion)
chain: LDSPDRPWNPPTFSPALLVVTEGDNATFTCSFSNTSESFVLNWYRMSPSNQTDKLAAFPEDRSQPGQDCRFRVTQLPNGRDFHMSVVRARRNDSGTYLCGAISLAPKAQIKESLRAELRVTERRAEVPTAHPSPSPRPAGQFQSKYGPPCPPCPAPEFLGGPSVFLFPPKPKDQLMISRTPEVTCVVVDVSQEDPEVQFNWYVDGVEVHNAKTKPREEQFNSTYRVVSVLTVLHQDWLSGKEYKCKVSSKGLPSSIEKTISNATGQPREPQVYTLPPSQEEMTKNQVSLTCLVKGFYPSDIAVEWESNGQPENNYKTTPPVLDSDGSFFLYSRLTVDKSRWQEGNVFSCSVLHEALHNHYTQKSLSLSLGKIEGRMDQVSHRYPRIQSIKVQFTEYKKEKGFILTSQKEDEIMKVQNNSVIINCDGFYLISLKGYFSQEVNISLHYQKDEEPLFQLKKVRSVNSLMVASLTYKDKVYLNVTTDNTSLDDFHVNGGELILIHQNPGEFCVL
notes: Tested as secreted protein in Jurkat supernatant and as purified protein; also called hPD-1-Fc-OX40L; hPD1-Fc-OX40L
For the molecule B1, the EC50 (usually the concentration needed to bring the measured effect to its halfway point) came to 37.3 nM in experiment [1] and 2690 nM in experiment [2]. Moreover, the binding result with human OX40 and with human PD-L1 was “binds” throughout. Also, the EC50 (read off the curve) (in general, the midpoint of the concentration-response curve) with anti-human PD-1 antibody is around 0.08 µg/mL.
